Experimental data published in patent US6136579.

Molecular target: asialofetuin (Sigma Type-I) (Bos taurus (Bovine)) (UniProt P12763)

## Triton extract of uninfected RK13 cells (pool or library)
  […] (fluorescence assay, […] (mU/mg total protein): 0.036
